From patent publication US20250179196A1 (Janssen / Centocor, published 2025)

T1: rat IL-23R extracellular domain (ECD) protein (rat)
T1 construct: also called rat IL-23R ECD; F1LX96 amino acids 24-354
T1 chain: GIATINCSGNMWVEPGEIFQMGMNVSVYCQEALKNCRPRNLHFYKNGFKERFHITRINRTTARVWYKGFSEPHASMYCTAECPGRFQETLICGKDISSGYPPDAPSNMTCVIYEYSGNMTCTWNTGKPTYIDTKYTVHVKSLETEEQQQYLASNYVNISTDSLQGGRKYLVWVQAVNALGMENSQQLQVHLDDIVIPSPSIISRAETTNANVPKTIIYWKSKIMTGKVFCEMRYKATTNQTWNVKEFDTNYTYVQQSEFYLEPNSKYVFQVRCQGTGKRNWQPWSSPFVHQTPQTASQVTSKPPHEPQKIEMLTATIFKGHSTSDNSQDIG

T2: Recombinant human IL-23 receptor (IL-23R) extracellular domain (ECD) protein (human, UniProt Q5VWK5 24-355)
T2 construct: also called human IL-23R ECD; hu IL-23R ECD
T2 sequence: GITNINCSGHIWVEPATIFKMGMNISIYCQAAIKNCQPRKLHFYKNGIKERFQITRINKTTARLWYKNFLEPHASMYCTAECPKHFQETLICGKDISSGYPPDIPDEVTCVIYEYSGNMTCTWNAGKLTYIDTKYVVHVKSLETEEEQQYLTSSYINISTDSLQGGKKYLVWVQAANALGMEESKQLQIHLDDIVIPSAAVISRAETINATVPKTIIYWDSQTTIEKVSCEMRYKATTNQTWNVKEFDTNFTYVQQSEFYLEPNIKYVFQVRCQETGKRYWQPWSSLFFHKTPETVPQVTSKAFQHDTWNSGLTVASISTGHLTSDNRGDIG


Assays:
[1] = target: T1, rat IL-23R extracellular domain (ECD) …; test: SPR Biacore 8K, supernatant
How it was run: (§1)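 Kinetics fitted to a 1:1 Langmuir model gave on-rate, off-rate and KD. Human or rat IL-23R ECD flowed over captured mAbs (~150 RU) at 0.8–500 nM, 5-fold dilutions: 3 min binding at 50 μL/min, then 30 min buffer, 25 °C, HBS-P+ plus 100 μg/ml BSA.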

[2] = target: T2, Recombinant human IL-23 receptor …; test: SPR Biacore 8K, supernatant, analysis 1
How it was run: as §1

[3] = target: T2, Recombinant human IL-23 receptor …; test: SPR Biacore 8K, supernatant, analysis 2
How it was run: as §1

Row | binding result [1] | Kd [2] [nM] | koff [2] [s⁻¹] | kon [2] [M⁻¹ s⁻¹] | Kd [3] [nM] | koff [3] [s⁻¹] | kon [3] [M⁻¹ s⁻¹] | Kd [1] [nM] | koff [1] [s⁻¹] | kon [1] [M⁻¹ s⁻¹] | Binder
1 | no binding (tested: 500 nM) | 49.8 | 0.00194 | 38900 | 43.7 | 0.00394 | 90200 |  |  |  | I23RB182 (antibody, mouse IgG2a, kappa, V domains shown, mouse immunization; mouse IgG2a/kappa) VH: EVQLQQSGPGLVKPSQSLSLTCSVTGYSITSGYFWNWLRQFPGSKLEWMGFIDNDGSNDYNPSLKNRISITRDTSKNQFFLRLNSVTTEDTATYYCARGRLGFFDSWGPGTTLTVSS VL: DIVMTQSPAIMSASLGEKVTMSCRASSSVNYMYWYQQKSDASPKLWIYYTSNLAPGVPARFSGSGSGNSYSLTISSMEGEDAATYYCQQFTNSPWTFGAGTKLELKR
2 |  | 1.64 | 0.000226 | 138000 | 2.33 | 0.000318 | 137000 | 92.1 | 0.00548 | 59500 | I23RB153 (antibody, mouse IgG2a, kappa, V domains shown, mouse immunization; mouse IgG2a/kappa) VH: EVKLVESGGGLVQPGGSLKLSCAASGFTFSSDTMSWVRQTPEKRLELVAEISSNGGSTYHIDTVKGRFTISRDNAKNTLYLQMSSLKSEDTAMYYCASPGYPWFAYWGQGTTVTVSA VL: DIVMTQSHRFMSTSVGERVSITCKASQDVGNAVAWYQQKPGQSPKLLIYWTSTRHNGVPDRFTGSGSGTDFTLTISNVQGEDLADYFCQQYNRYPLTFGSGTKLEIKR
3 | no binding (tested: 500 nM) | 91.3 | 0.0116 | 128000 | 34.8 | 0.00427 | 123000 |  |  |  | I23RB169 (antibody, mouse IgG2a, kappa, V domains shown, mouse immunization; mouse IgG2a/kappa) VH: QIQLVQSGPELKKPGETVKISCKASGYTFTTVGMQWVQKMPGKGFKWIGWINTHSGEPKYTDDFKGRFAFSLETSASTAYLQISNLKSEDTATYFCARSSALTGAFAYWGQGTLVTVSS VL: DIKMTQSPASLAVSLGQRATISCRASKSVSTSDYSYMHWYQQKPGQPPKLLIYLASNLESGVPARFSGSGSGTDFTLNIHPVEEEDAATYYCQHSRELPRTFGAGTKLELKR
4 | no binding (tested: 500 nM) | 43.1 | 0.0193 | 447000 | 44.1 | 0.00942 | 214000 |  |  |  | I23RB166 (antibody, mouse IgG2a, kappa, V domains shown, mouse immunization; mouse IgG2a/kappa) VH: DVQLQESGPGLVKPSQTVSLTCTVTGYSITNGNHWWNWIRQVSGSKLEWIGYIRSSGSTDSNPSLKSRISITRDTSKNQLFLQLNSVTAEDIATYYCARERLRLRWSYFDYWGQGTTLTVSS VL: DIVMTQSHKFMSTSVGARVSITCKASQDVSTAVAWYQQKPGQSPKLLIYSASYRYTGVPDRFTGSGSGTDFTFTISSVQAEDLAVYYCQQHYSTPRTFGGGTKLEIKR
5 | no binding (tested: 500 nM) | 0.874 | 0.000459 | 525000 | 0.766 | 0.000382 | 498000 |  |  |  | I23RB148 (antibody, mouse IgG2a, kappa, V domains shown, mouse immunization; mouse IgG2a/kappa) VH: DVQLQESGPDLVKPSQSLSLTCTVTGYSITSGYNWHWIRQFPGNKLEWMGYIHSSGTTNYSPSLRSRLSITRDTSKNQFFLQLNSVTTEDTATYYCTRQLGLKAMEYWGQGTTLTVSS VL: DIVMTQSHKFMSTSVGDRVSLTCKASQEVRTAVAWYQQKPGQPPKLLIYSASYRYTGVPDRFTGSGSGTDFTFTIISVQAEDLAVYYCQQHYTTPYSFGSGTKLEIKR
6 | no binding (tested: 500 nM) | 16.9 | 0.00955 | 567000 | 13.8 | 0.0142 | 1.02e+06 |  |  |  | I23RB160 (antibody, mouse IgG2a, kappa, V domains shown, mouse immunization; mouse IgG2a/kappa) VH: QVQLKESGPDLVKPSQSLSLTCTVTGYSITSGYNWHWIRQFPGNKLEWMGYIHYSSGTIYNPSLKSRISITRDTSKNQFFLQLNSVTTEDTGTYYCARQLGLKAMDYWGQGTSVTVSS VL: DIVMTQSHKFMSTSVGDRVSITCKASQDVRTAVAWYQQKPGQSPKLLIHSASYRYTGVPDRFTGSGSGTDFTFTISSVQVEDLAVYYCQQHYTTPYTFGSGTKLEIKR
7 | no binding (tested: 500 nM) | 0.403 | 0.000218 | 542000 | 0.588 | 0.000259 | 441000 |  |  |  | I23RB156 (antibody, mouse IgG2a, kappa, V domains shown, mouse immunization; mouse IgG2a/kappa) VH: QVQLKESGPGLVAPSQSLSITCTVSGFSLTSYAINWVRQPPGKGLEWLGVIWTGGGTNYNSVFKSRLSISKDNSKSQIFLKMISLQTDDTARYYCARNRDYSNYRWYFDVWGAGTTLTVSS VL: DIVMTQSHKFMSTSVGDRVSITCKASQDVSTAVAWYQQKPGRSPKLLIYSAFYRYTGVPDRFTGSGSGTDFTFTIGSVQAEDLAVYYCQQHYSIPLTFGAGTKLELKR
8 | no binding (tested: 500 nM) | 96.5 | 0.0329 | 341000 | 112 | 0.0376 | 334000 |  |  |  | I23RB150 (antibody, mouse IgG2a, kappa, V domains shown, mouse immunization; mouse IgG2a/kappa) VH: QIQLVQSGPELKKPGETVKISCKASAYTFTNYGMNWVKQAPGKGLKWMGWIKTNTGEPTYAEEFKGRFAFSLETSASTAYLQINNLKNEDTATYFCARSRQLGLRYYFDYWGQGTTLTVSS VL: DIVMTQSHKFMSTSVGGRVSITCKASQDVSTAVAWYQQKPGQSPRLLIYSASYRYTGVPDRFTGSGSGTDFTFTISSVQAEDLAVFYCQQHYSTPYTFGSGTRLEIKR
9 | no binding (tested: 500 nM) | 44.6 | 0.0237 | 531000 | 62.2 | 0.0216 | 347000 |  |  |  | I23RB162 (antibody, mouse IgG2a, kappa, V domains shown, mouse immunization; mouse IgG2a/kappa) VH: EFQLQQSGPELVKPGASVKMSCKASGYTFTNYVMHWVKQKPGQGLEWIGYINPYNDGTKYNEKFKGKATLTSDKSSSTAYMELSSLTSEDSAVYYCARSRTGTRWYFDVWGAGTTVTVSS VL: DIVMTQSQKFMSTSVGDRVSVTCKASQNVGTNVAWYQQKPGQSPKALIYSASYRYSGVPDRFTGSGSGTDFTLTISNVQSEDLAEYFCQQYNSYPFTFGSGTKLEIKR
10 | no binding (tested: 500 nM) | < 0.0784 | < 2.89e-05 | 369000 | < 0.121 | < 2.89e-05 | 239000 |  |  |  | I23RB155 (antibody, mouse IgG2a, kappa, V domains shown, mouse immunization; mouse IgG2a/kappa) VH: QVQLKESGPGLVKPSQSLSLTCSVTGYSITSGHSWNWIRQFPGNKLEWMGYISYDGTNDYNPSLKNRISITRDTSKNQFFLNLNSVTTEDTVTYYCARGGGYYGGTYRVFADWGQGTTLTVSS VL: QIVLSQSPASLAVSLGQRATISCRTSESVDTYGNSFIYWYQQKPGQPPKLLIYRASNLESGIPARFSGSGSRTDFTLTINPVEADDVATYYCQQGNKDPYTFGSGTKLEMKR
11 | no binding (tested: 500 nM) | 0.279 | 0.000118 | 424000 | 0.422 | 0.000155 | 368000 |  |  |  | I23RB168 (antibody, mouse IgG2a, kappa, V domains shown, mouse immunization; mouse IgG2a/kappa) VH: QIQLVQSGPELVKPGASVKMSCKTSGYTFTDYYINWVKQRPGQGLEWIGWIYPAINNTNYNEKFKGKATLTVDTSSRTAYMQLNSLTSEDSAVYFCAISRKPYFDYWGQGTTLTVSS VL: DIQMTQSSSSFSVSLGDRVTITCKASEDLYNRLAWYQQKPGNAPRLLISGATSLGTGVLSRFSGSGSGKDYTLSITSLQTEDVATYYCQQYWSIPWTFGAGTKLELKR
12 | no binding (tested: 500 nM) | 30.6 | 0.00272 | 89000 | 53.3 | 0.00277 | 52000 |  |  |  | I23RB144 (antibody, mouse IgG2a, kappa, V domains shown, mouse immunization; mouse IgG2a/kappa) VH: EVQLQQSGPELVKPGASVKMSCKASGYTFTSYIIHWVKQKPGQGLEWIGYIDPYNDDTKYNEKFKGKATLTSDKSSSTAYMEFSSLTSEDSAVYYCARLGSINYYDGSYFDYWGQGTSVTVSS VL: DIVMTQSPLTLSVIIGQSASISCKSSQSLLDSDGKTYLNWLLQRPGQSPKRLMYLVSKLDSGVPDRFTGSGSGTDFTLKISRVEAEDLGVYYCWQGIHFPLTFGSGTRLEIKR
